# Assay results reported in patent US20230002480A1.
# How the values were obtained:
# Test in all cases: cell-based or functional assay
# [1] = molecular target: HIV-1 Env of pseudovirus ZM233M.PB6 (HIV-1)
# [2] = molecular target: HIV-1 Env of pseudovirus CNE19 (HIV-1)
# [3] = molecular target: HIV-1 Env of pseudovirus Ce1086_B2 (HIV-1)
# [4] = molecular target: HIV-1 Env of pseudovirus R1166.c01 (HIV-1)
# [5] = molecular target: HIV-1 Env of pseudovirus SC05_8C11_2344 (HIV-1)
# [6] = molecular target: HIV-1 Env of pseudovirus C2101.c01 (HIV-1)
# [7] = molecular target: HIV-1 Env of pseudovirus 3365.v2.c2 (HIV-1)
# [8] = molecular target: HIV-1 Env of pseudovirus BJOX009000.02.4 (HIV-1)
# [9] = molecular target: HIV-1 Env of pseudovirus 263-8 (HIV-1)
# [10] = molecular target: HIV-1 Env of pseudovirus 211-9 (HIV-1)
# [11] = molecular target: HIV-1 Env of pseudovirus CNE53 (HIV-1)
# [12] = molecular target: HIV-1 Env of pseudovirus 928-28 (HIV-1)
# [13] = molecular target: HIV-1 Env of pseudovirus HIV-16055-2.3 (HIV-1)
# [14] = molecular target: HIV-1 Env of pseudovirus ZM197M.PB7 (HIV-1)
# [15] = molecular target: HIV-1 Env of pseudovirus 249M B10 (HIV-1)
# [16] = molecular target: HIV-1 Env of pseudovirus 1012_11_TC21_3257 (HIV-1)
# [17] = molecular target: HIV-1 Env of pseudovirus ZM135M.PL10a (HIV-1)
# [18] = molecular target: HIV-1 Env of pseudovirus 191084 B7-19 (HIV-1)
# [19] = molecular target: HIV-1 Env of pseudovirus HIV-0013095-2.11 (HIV-1)
# [20] = molecular target: HIV-1 Env of pseudovirus 1056_10_TA11_1826 (HIV-1)
# [21] = molecular target: HIV-1 Env of pseudovirus 1006_11_C3_1601 (HIV-1)
# [22] = molecular target: HIV-1 Env of pseudovirus ZM53M.PB12 (HIV-1)
# [23] = molecular target: HIV-1 Env of pseudovirus 9004SS_A3_4 (HIV-1)
# [24] = molecular target: HIV-1 Env of pseudovirus T278-50 (HIV-1)
# [25] = molecular target: HIV-1 Env of pseudovirus 620345.c01 (HIV-1)
# [26] = molecular target: HIV-1 Env of pseudovirus 235-47 (HIV-1)
# [27] = molecular target: HIV-1 Env of pseudovirus T250-4 (HIV-1)
# [28] = molecular target: HIV-1 Env of pseudovirus PVO.4 (HIV-1)
# [29] = molecular target: HIV-1 Env of pseudovirus QH0692.42 (HIV-1)
# [30] = molecular target: HIV-1 Env of pseudovirus CNE8 (HIV-1)
# [31] = molecular target: HIV-1 Env of pseudovirus TRJO4551.58 (HIV-1)
# [32] = molecular target: HIV-1 Env of pseudovirus Q23.17 (HIV-1)
# [33] = molecular target: HIV-1 Env of pseudovirus 6041.v3.c23 (HIV-1)
# [34] = molecular target: HIV-1 Env of pseudovirus 3817.v2.c59 (HIV-1)
# [35] = molecular target: HIV-1 Env of pseudovirus 3301.v1.c24 (HIV-1)
# [36] = molecular target: HIV-1 Env of pseudovirus 6811.v7.c18 (HIV-1)
# [37] = molecular target: HIV-1 Env of pseudovirus 3103.v3.c10 (HIV-1)
substance,measurement,setting,value
N49P7.1 (antibody),neutralization IC50,[1],0.355 µg/mL
same,neutralization IC80,[1],1.25 µg/mL
same,neutralization MPI,[1],100
same,neutralization IC50,[2],0.027 µg/mL
same,neutralization IC80,[2],0.128 µg/mL
same,neutralization MPI,[2],100
same,neutralization IC50,[3],0.121 µg/mL
same,neutralization IC80,[3],0.742 µg/mL
same,neutralization MPI,[3],99
same,neutralization IC50,[4],0.136 µg/mL
same,neutralization IC80,[4],0.461 µg/mL
same,neutralization MPI,[4],100
same,neutralization IC50,[5],0.189 µg/mL
same,neutralization IC80,[5],0.688 µg/mL
same,neutralization MPI,[5],100
same,neutralization IC50,[6],0.076 µg/mL
same,neutralization IC80,[6],0.425 µg/mL
same,neutralization MPI,[6],100
same,neutralization IC50,[7],0.088 µg/mL
same,neutralization IC80,[7],0.289 µg/mL
same,neutralization MPI,[7],100
same,neutralization IC50,[8],0.219 µg/mL
same,neutralization IC80,[8],0.756 µg/mL
same,neutralization MPI,[8],100
same,neutralization IC50,[9],0.104 µg/mL
same,neutralization IC80,[9],0.392 µg/mL
same,neutralization MPI,[9],100
same,neutralization IC50,[10],0.34 µg/mL
same,neutralization IC80,[10],1.17 µg/mL
same,neutralization MPI,[10],100
same,neutralization IC50,[11],0.066 µg/mL
same,neutralization IC80,[11],0.228 µg/mL
same,neutralization MPI,[11],100
same,neutralization IC50,[12],0.23 µg/mL
same,neutralization IC80,[12],0.775 µg/mL
same,neutralization MPI,[12],100
same,neutralization IC50,[13],0.088 µg/mL
same,neutralization IC80,[13],0.318 µg/mL
same,neutralization MPI,[13],100
same,neutralization IC50,[14],0.144 µg/mL
same,neutralization IC80,[14],0.539 µg/mL
same,neutralization MPI,[14],100
same,neutralization IC50,[15],0.053 µg/mL
same,neutralization IC80,[15],0.225 µg/mL
same,neutralization MPI,[15],100
same,neutralization IC50,[16],0.063 µg/mL
same,neutralization IC80,[16],0.176 µg/mL
same,neutralization MPI,[16],100
same,neutralization IC50,[17],0.314 µg/mL
same,neutralization IC80,[17],1.11 µg/mL
same,neutralization MPI,[17],99
same,neutralization IC50,[18],0.069 µg/mL
same,neutralization IC80,[18],0.2 µg/mL
same,neutralization MPI,[18],100
same,neutralization IC50,[19],0.105 µg/mL
same,neutralization IC80,[19],0.374 µg/mL
same,neutralization MPI,[19],100
same,neutralization IC50,[20],0.171 µg/mL
same,neutralization IC80,[20],0.603 µg/mL
same,neutralization MPI,[20],100
same,neutralization IC50,[21],0.061 µg/mL
same,neutralization IC80,[21],0.193 µg/mL
same,neutralization MPI,[21],100
same,neutralization IC50,[22],0.287 µg/mL
same,neutralization IC80,[22],1 µg/mL
same,neutralization MPI,[22],100
same,neutralization IC50,[23],0.221 µg/mL
same,neutralization IC80,[23],0.841 µg/mL
same,neutralization MPI,[23],100
same,neutralization IC50,[24],42.4 µg/mL
same,neutralization IC80,[24],> 50 µg/mL
same,neutralization MPI,[24],56
same,neutralization IC50,[25],> 50 µg/mL
same,neutralization IC80,[25],> 50 µg/mL
same,neutralization MPI,[25],47
same,neutralization IC50,[26],0.078 µg/mL
same,neutralization IC80,[26],0.419 µg/mL
same,neutralization MPI,[26],97
same,neutralization IC50,[27],2.27 µg/mL
same,neutralization IC80,[27],24.7 µg/mL
same,neutralization MPI,[27],89
same,neutralization IC50,[28],0.124 µg/mL
same,neutralization IC80,[28],0.421 µg/mL
same,neutralization MPI,[28],100
same,neutralization IC50,[29],0.764 µg/mL
same,neutralization IC80,[29],2.71 µg/mL
same,neutralization MPI,[29],100
same,neutralization IC50,[30],0.048 µg/mL
same,neutralization IC80,[30],0.167 µg/mL
same,neutralization MPI,[30],100
same,neutralization IC50,[31],0.156 µg/mL
same,neutralization IC80,[31],0.529 µg/mL
same,neutralization MPI,[31],100
same,neutralization IC50,[32],0.077 µg/mL
same,neutralization IC80,[32],0.208 µg/mL
same,neutralization MPI,[32],100
N49P7.2 (antibody),IC50,[4],0.267 µg/mL
same,IC80,[4],0.852 µg/mL
same,MPI,[4],100
same,IC50,[6],0.162 µg/mL
same,IC80,[6],0.727 µg/mL
same,MPI,[6],100
same,IC50,[7],0.066 µg/mL
same,IC80,[7],0.267 µg/mL
same,MPI,[7],100
same,IC50,[8],> 50 µg/mL
same,IC80,[8],> 50 µg/mL
same,MPI,[8],43
same,IC50,[9],0.095 µg/mL
same,IC80,[9],0.641 µg/mL
same,MPI,[9],100
same,IC50,[10],0.363 µg/mL
same,IC80,[10],1.22 µg/mL
same,MPI,[10],100
same,IC50,[12],0.347 µg/mL
same,IC80,[12],1.11 µg/mL
same,MPI,[12],100
same,IC50,[18],0.102 µg/mL
same,IC80,[18],0.29 µg/mL
same,MPI,[18],100
same,IC50,[33],0.309 µg/mL
same,IC80,[33],5.11 µg/mL
same,MPI,[33],94
same,IC50,[34],9.83 µg/mL
same,IC80,[34],> 50 µg/mL
same,MPI,[34],68
same,IC50,[35],0.05 µg/mL
same,IC80,[35],0.137 µg/mL
same,MPI,[35],100
same,IC50,[23],0.266 µg/mL
same,IC80,[23],1.62 µg/mL
same,MPI,[23],100
same,IC50,[36],0.541 µg/mL
same,IC80,[36],2.55 µg/mL
same,MPI,[36],100
same,IC50,[24],> 50 µg/mL
same,IC80,[24],> 50 µg/mL
same,MPI,[24],33
same,IC50,[25],> 50 µg/mL
same,IC80,[25],> 50 µg/mL
same,MPI,[25],0
same,IC50,[26],0.127 µg/mL
same,IC80,[26],1.03 µg/mL
same,MPI,[26],90
same,IC50,[27],> 50 µg/mL
same,IC80,[27],> 50 µg/mL
same,MPI,[27],15
same,IC50,[37],0.222 µg/mL
same,IC80,[37],0.57 µg/mL
same,MPI,[37],100
same,IC50,[30],0.073 µg/mL
same,IC80,[30],0.24 µg/mL
same,MPI,[30],100
